Measurements: publication doi:10.1101/2020.04.16.045674
Where two headings read alike, the source gives them in different places.

What was measured:
[1] = target: NaChBac (Bacillus halodurans); assay: cryo-EM structure
[2] = target: NaChBac (Bacillus halodurans); assay: cryo-EM structure; remark: listed apart in the source

## NaChBac (natural protein)
[1]
  stoichiometry N: 4
[2]
  stoichiometry N: 4
